One assay has as its target human glucagon receptor (human, UniProt P47871 26-477). Put plainly: cell-based or functional assay.
Assay [1] has as its target human glucagon-like peptide 1 receptor (human, UniProt P43220 24-463). In words: cell-based or functional assay.

*1 amine or outer side, *2 acyl side, *3 side chain or, on linkers, in order; H or OH if unused. Where no end group is shown, it is not given here. Side-chain parts run from the residue outwards. [ ]: non-standard residue; d: D form. The star is where a group is joined. γGlu = O=C(O)[C@H](CCC(=O)[*:2])N[*:1]; Palmitoyl = CCCCCCCCCCCCCCCC(=O)*; Ac4c = NC1(C(=O)O)CCC1

human glucagon receptor, sequence (P47871 26-477): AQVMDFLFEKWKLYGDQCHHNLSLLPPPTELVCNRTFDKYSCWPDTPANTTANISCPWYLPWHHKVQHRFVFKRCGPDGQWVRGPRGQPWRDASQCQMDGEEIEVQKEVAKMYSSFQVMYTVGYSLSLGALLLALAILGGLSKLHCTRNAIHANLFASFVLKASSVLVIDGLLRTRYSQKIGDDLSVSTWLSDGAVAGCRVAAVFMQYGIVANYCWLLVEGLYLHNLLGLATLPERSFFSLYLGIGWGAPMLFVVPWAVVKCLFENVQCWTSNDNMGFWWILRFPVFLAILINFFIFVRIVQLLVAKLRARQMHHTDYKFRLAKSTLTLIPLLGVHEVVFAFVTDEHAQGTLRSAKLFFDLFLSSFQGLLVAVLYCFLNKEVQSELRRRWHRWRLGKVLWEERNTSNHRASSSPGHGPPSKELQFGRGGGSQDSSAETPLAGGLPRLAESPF

B1: Co-agonist Peptide 11 (peptide)
peptide: H[dS]QGTFTSDK([γGlu-γGlu-Palmitoyl])SLYLDERAAQDFVQWLLDT-NH2
modifications: N-terminus assumed
SMILES: CCCCCCCCCCCCCCCC(=O)N[C@@H](CCC(=O)N[C@@H](CCC(=O)NCCCC[C@H](NC(=O)[C@H](CC(=O)O)NC(=O)[C@H](CO)NC(=O)[C@@H](NC(=O)[C@H](Cc1ccccc1)NC(=O)[C@@H](NC(=O)CNC(=O)[C@H](CCC(N)=O)NC(=O)[C@@H](CO)NC(=O)[C@@H](N)Cc1c[nH]cn1)[C@@H](C)O)[C@@H](C)O)C(=O)N[C@@H](CO)C(=O)N[C@@H](CC(C)C)C(=O)N[C@@H](Cc1ccc(O)cc1)C(=O)N[C@@H](CC(C)C)C(=O)N[C@@H](CC(=O)O)C(=O)N[C@@H](CCC(=O)O)C(=O)N[C@@H](CCCNC(=N)N)C(=O)N[C@@H](C)C(=O)N[C@@H](C)C(=O)N[C@@H](CCC(N)=O)C(=O)N[C@@H](CC(=O)O)C(=O)N[C@@H](Cc1ccccc1)C(=O)N[C@H](C(=O)N[C@@H](CCC(N)=O)C(=O)N[C@@H](Cc1c[nH]c2ccccc12)C(=O)N[C@@H](CC(C)C)C(=O)N[C@@H](CC(C)C)C(=O)N[C@@H](CC(=O)O)C(=O)N[C@H](C(N)=O)[C@@H](C)O)C(C)C)C(=O)O)C(=O)O
Take B1: the “GCGR EC50 (nM) human; cAMP production (HitHunter cAMP XS) in cells expressing human GCGR, 20% human serum” value (“GCGR EC50 (nM) human … 20% human serum” for short) in the assay with human glucagon receptor amounted to 0.06 nM. The “GLPR1 EC50 (nM) human; cAMP production (HitHunter cAMP XS) in cells expressing human GLP-1R, 20% human serum” value (“GLPR1 EC50 (nM) human … 20% human serum” for short) in assay [1] was 0.06 nM.

B2: Co-agonist Peptide 14 (peptide)
peptide: HXQGTXTSDKSKYLDERAAQDFVQWLLDT
modifications: not fully specified; X2 = D-Ser; X6 = threo-β-Phenylserine (tβP); K10 conjugated to γEγEC16; C-terminal amide
Take B2: in the assay with human glucagon receptor, the “GCGR EC50 (nM) human … 20% human serum” value was determined as 1.04 nM. For the same molecule, the “GLPR1 EC50 (nM) human … 20% human serum” value in assay [1] is 1.02 nM.

B3: Co-agonist Peptide 5 (peptide)
peptide: H[dS]QGTFTSDK([γGlu-γGlu-Palmitoyl])SKYLDARAAQDFVQWLLDT-NH2
modifications: N-terminus assumed
SMILES: CCCCCCCCCCCCCCCC(=O)N[C@@H](CCC(=O)N[C@@H](CCC(=O)NCCCC[C@H](NC(=O)[C@H](CC(=O)O)NC(=O)[C@H](CO)NC(=O)[C@@H](NC(=O)[C@H](Cc1ccccc1)NC(=O)[C@@H](NC(=O)CNC(=O)[C@H](CCC(N)=O)NC(=O)[C@@H](CO)NC(=O)[C@@H](N)Cc1c[nH]cn1)[C@@H](C)O)[C@@H](C)O)C(=O)N[C@@H](CO)C(=O)N[C@@H](CCCCN)C(=O)N[C@@H](Cc1ccc(O)cc1)C(=O)N[C@@H](CC(C)C)C(=O)N[C@@H](CC(=O)O)C(=O)N[C@@H](C)C(=O)N[C@@H](CCCNC(=N)N)C(=O)N[C@@H](C)C(=O)N[C@@H](C)C(=O)N[C@@H](CCC(N)=O)C(=O)N[C@@H](CC(=O)O)C(=O)N[C@@H](Cc1ccccc1)C(=O)N[C@H](C(=O)N[C@@H](CCC(N)=O)C(=O)N[C@@H](Cc1c[nH]c2ccccc12)C(=O)N[C@@H](CC(C)C)C(=O)N[C@@H](CC(C)C)C(=O)N[C@@H](CC(=O)O)C(=O)N[C@H](C(N)=O)[C@@H](C)O)C(C)C)C(=O)O)C(=O)O
With B3, the “GCGR EC50 (nM) human … 20% human serum” value with human glucagon receptor came to 0.03 nM. Further, the “GLPR1 EC50 (nM) human … 20% human serum” value in assay [1] was found to be 0.033 nM.

B4: Co-agonist Peptide 10 (peptide)
peptide: HXQGTFTSDKSKYLDERAAQDFVQWLXDT
modifications: X2 = D-Ser; K10 conjugated to γEγEC16; X27 = methionine sulfone; C-terminal amide
Turning to B4, the “GCGR EC50 (nM) human … 20% human serum” value in the assay with human glucagon receptor was 0.02 nM. Besides, the “GLPR1 EC50 (nM) human … 20% human serum” value in assay [1] was found to be 0.02 nM.

B5: Co-agonist Peptide 1 (peptide)
peptide: H[dS]QGTFTSDK([γGlu-Palmitoyl])SKYLDARAAQDFVQWLLDT-NH2
modifications: N-terminus assumed
SMILES: CCCCCCCCCCCCCCCC(=O)N[C@@H](CCC(=O)NCCCC[C@H](NC(=O)[C@H](CC(=O)O)NC(=O)[C@H](CO)NC(=O)[C@@H](NC(=O)[C@H](Cc1ccccc1)NC(=O)[C@@H](NC(=O)CNC(=O)[C@H](CCC(N)=O)NC(=O)[C@@H](CO)NC(=O)[C@@H](N)Cc1c[nH]cn1)[C@@H](C)O)[C@@H](C)O)C(=O)N[C@@H](CO)C(=O)N[C@@H](CCCCN)C(=O)N[C@@H](Cc1ccc(O)cc1)C(=O)N[C@@H](CC(C)C)C(=O)N[C@@H](CC(=O)O)C(=O)N[C@@H](C)C(=O)N[C@@H](CCCNC(=N)N)C(=O)N[C@@H](C)C(=O)N[C@@H](C)C(=O)N[C@@H](CCC(N)=O)C(=O)N[C@@H](CC(=O)O)C(=O)N[C@@H](Cc1ccccc1)C(=O)N[C@H](C(=O)N[C@@H](CCC(N)=O)C(=O)N[C@@H](Cc1c[nH]c2ccccc12)C(=O)N[C@@H](CC(C)C)C(=O)N[C@@H](CC(C)C)C(=O)N[C@@H](CC(=O)O)C(=O)N[C@H](C(N)=O)[C@@H](C)O)C(C)C)C(=O)O
Take B5: in the assay with human glucagon receptor, the “GCGR EC50 (nM) human … 20% human serum” value was determined as 0.042 nM. The “GLPR1 EC50 (nM) human … 20% human serum” value in assay [1] came to 0.048 nM.

B6: Co-agonist Peptide 8 (peptide)
peptide: H[dS]QGTFTSDK([γGlu-γGlu-Palmitoyl])SKYLEARAAQDFVQWLLDT-NH2
modifications: N-terminus assumed
SMILES: CCCCCCCCCCCCCCCC(=O)N[C@@H](CCC(=O)N[C@@H](CCC(=O)NCCCC[C@H](NC(=O)[C@H](CC(=O)O)NC(=O)[C@H](CO)NC(=O)[C@@H](NC(=O)[C@H](Cc1ccccc1)NC(=O)[C@@H](NC(=O)CNC(=O)[C@H](CCC(N)=O)NC(=O)[C@@H](CO)NC(=O)[C@@H](N)Cc1c[nH]cn1)[C@@H](C)O)[C@@H](C)O)C(=O)N[C@@H](CO)C(=O)N[C@@H](CCCCN)C(=O)N[C@@H](Cc1ccc(O)cc1)C(=O)N[C@@H](CC(C)C)C(=O)N[C@@H](CCC(=O)O)C(=O)N[C@@H](C)C(=O)N[C@@H](CCCNC(=N)N)C(=O)N[C@@H](C)C(=O)N[C@@H](C)C(=O)N[C@@H](CCC(N)=O)C(=O)N[C@@H](CC(=O)O)C(=O)N[C@@H](Cc1ccccc1)C(=O)N[C@H](C(=O)N[C@@H](CCC(N)=O)C(=O)N[C@@H](Cc1c[nH]c2ccccc12)C(=O)N[C@@H](CC(C)C)C(=O)N[C@@H](CC(C)C)C(=O)N[C@@H](CC(=O)O)C(=O)N[C@H](C(N)=O)[C@@H](C)O)C(C)C)C(=O)O)C(=O)O
Consider B6, for which the “GCGR EC50 (nM) human … 20% human serum” value with human glucagon receptor was found to be 0.02 nM. Moreover, in assay [1], the “GLPR1 EC50 (nM) human … 20% human serum” value came out at 0.02 nM.
Take H[dS]QGTFTSDK([γGlu-γGlu-Palmitoyl])SKYLDVRRAQDFVQWLLDT-NH2 (not fully specified; printed as HsQGTFTSDK(γEγEC16)SKYLDVRRAQDFVQWLLDT-NH2) [Co-agonist Peptide 2]: the “GCGR EC50 (nM) human … 20% human serum” value in the assay with human glucagon receptor was found to be 0.041 nM. Besides, in assay [1], the “GLPR1 EC50 (nM) human … 20% human serum” value is 0.16 nM.

B7: Co-agonist Peptide 12 (peptide)
peptide: HXQGTFTSDXSKYLDARAAQDFVQWLLDT
modifications: X2 = D-Ser; X10 = para-aminomethyl phenylalanine (pAF) conjugated to γEγEC16; C-terminal amide
Regarding B7, the “GCGR EC50 (nM) human … 20% human serum” value in the assay with human glucagon receptor was 0.05 nM. The “GLPR1 EC50 (nM) human … 20% human serum” value in assay [1] was determined as 0.05 nM.

B8: Co-agonist Peptide 13 (peptide)
peptide: H[Ac4c]QGTFTSDK([γGlu-γGlu-Palmitoyl])SKYLDERAAQDFVQWLLDT-NH2
modifications: N-terminus assumed
SMILES: CCCCCCCCCCCCCCCC(=O)N[C@@H](CCC(=O)N[C@@H](CCC(=O)NCCCC[C@H](NC(=O)[C@H](CC(=O)O)NC(=O)[C@H](CO)NC(=O)[C@@H](NC(=O)[C@H](Cc1ccccc1)NC(=O)[C@@H](NC(=O)CNC(=O)[C@H](CCC(N)=O)NC(=O)C1(NC(=O)[C@@H](N)Cc2c[nH]cn2)CCC1)[C@@H](C)O)[C@@H](C)O)C(=O)N[C@@H](CO)C(=O)N[C@@H](CCCCN)C(=O)N[C@@H](Cc1ccc(O)cc1)C(=O)N[C@@H](CC(C)C)C(=O)N[C@@H](CC(=O)O)C(=O)N[C@@H](CCC(=O)O)C(=O)N[C@@H](CCCNC(=N)N)C(=O)N[C@@H](C)C(=O)N[C@@H](C)C(=O)N[C@@H](CCC(N)=O)C(=O)N[C@@H](CC(=O)O)C(=O)N[C@@H](Cc1ccccc1)C(=O)N[C@H](C(=O)N[C@@H](CCC(N)=O)C(=O)N[C@@H](Cc1c[nH]c2ccccc12)C(=O)N[C@@H](CC(C)C)C(=O)N[C@@H](CC(C)C)C(=O)N[C@@H](CC(=O)O)C(=O)N[C@H](C(N)=O)[C@@H](C)O)C(C)C)C(=O)O)C(=O)O
For the molecule B8, the “GCGR EC50 (nM) human … 20% human serum” value with human glucagon receptor came to 0.06 nM. In addition, the “GLPR1 EC50 (nM) human … 20% human serum” value in assay [1] is 0.05 nM.
In the same order, the values of Ac-HAQGTFTSDK([γGlu-γGlu-C16])SKYLDERAAQDFVQWLLDT-NH2 [Co-agonist Peptide 7] are 0.07 nM and 0.07 nM.
In the same order, the values of HXQGTFTSDKSKYLDERAAQDFVQWLLDT (X2 = D-Ser; K10 conjugated to γEγEC16; C-terminal amide) [Comparator Co-agonist Peptide 6] are 0.009 nM and 0.007 nM.

B9: Co-agonist Peptide 9 (peptide)
peptide: HXQGTXTSDKSKYLDERAAQDFVQWLLDT
modifications: X2 = D-Ser; X6 = p-fluoro phenylalanine (pFF); K10 conjugated to γEγEC16; C-terminal amide
In the case of B9, the “GCGR EC50 (nM) human … 20% human serum” value in the assay with human glucagon receptor is 0.05 nM. Moreover, the “GLPR1 EC50 (nM) human … 20% human serum” value in assay [1] was determined as 0.06 nM.

The values are drawn from patent US20170360893A1 (Merck Sharp & Dohme, published 2017).
